Assay results taken from the DeepSol protein solubility set.

Test: soluble on expression in E. coli; label from the status in PepcDB or PDB records

Row | Sequence | soluble on expression in E. coli
1 | MTATQITGVVLAAGRSNRLGTPKQLLPYRDTTVLGATLDVARQAGFDQLILTLGGAASAVRAAMALDGTDVVVVEDVERGCAASLRVALARVHPRATGIVLMLGDQPQVAPATLRRIIDVGPATEIMVCRYADGVGHPFWFSRTVFGELARLHGDKGVWKLVHSGRHPVRELAVDGCVPLDVDTWDDYRRLLESVPS | not soluble
2 | MTCWLRGVTATFGRPAEWPGYLSHLCGRSAAMDLGPMRKSYRGDREAFEETHLTSLDPVKQFAAWFEEAVQCPDIGEANAMCLATCTRDGKPSARMLLLKGFGKDGFRFFTNFESRKGKELDSNPFASLVFYWEPLNRQVRVEGPVKKLPEEEAECYFHSRPKSSQIGAVVSHQSSVIPDREYLRKKNEELEQLYQDQEVPKPKSWGGYVLYPQVMEFWQGQTNRLHDRIVFRRGLPTGDSPLGPMTHRGEEDWLYERLAP | soluble
3 | MSAISSFVLECAHAGRWVRGLMALQEQHLPAEPSMRVACVALAQAAAPHSWAAALCLLRPSDALRHPQEVCKTVDTIARHAQLPIDVFESSMEALLLSLQQLSQSKSHPASGSSRQLASIGPCEALGLATPSTPIQQQVFLSATQWCGWETAARLLACLPSPLPQACVERVQELRTLRHRILHDVGPFCHWGSRAALSSVIGSAGGPLPASAQGTSLAEQLERMEPSPARRYSARDRRELSWLRDHKRQRLLQRTREEEDMLTRQAAEDVAPSALSVCAALRAVTRLPSAASVTAPHVLCRHVLTLSQSRRLTPDIALLYGRAAGLCTPHSWEATVDTLNRAEVRDARLHRQLTTWVISRGSWRAALERLSQLHRDTSSAVPQRSGNNTGDLHRGGDAAASFDCVQRTAVPASYLHRVVPQVSRPWCRLVSSRHSTASLLRQIAGALAGGVRLDEVQLSEAGKEWAANGRWEAALALYYRFPLPEFQKYATRSLVTARPALPPVPSVSHPPSSCLQIGSDPLPGSPSKDSAMFYARTVLELLVPRDGVRYDSASPPRPAPPLGTYPACLVIDAAADWSEAVAVFRACVRRGTRCNPQLLSTLMRRQDLPPQELRQILKSYPAAVNDGVRRRAKEGFGVE | not soluble
4 | MGCFFSKRRKADKESRPENEEERPKQYSWDQREKVDPKDYMFSGLKDETVGRLPGTVAGQQFLIQDCENCNIYIFDHSATVTIDDCTNCIIFLGPVKGSVFFRNCRDCKCTLACQQFRVRDCRKLEVFLCCATQPIIESSSNIKFGCFQWYYPELAFQFKDAGLSIFDNTWSNIHDFTPVSGELNWSLLPEDAVVQDYVPIPTTEELKAVRVSTEANRSIVPISRGQRQKSSDESCLVVLFAGDYTIANARKLIDEMVGKGFFLVQTKEVSMKAEDAQRVFREKAPDFLPLLNKGPVIALEFNGDGAVEVCQLIVNEIFNGTKMFVSESKETASGDVDSFYNFADIQMGILEHHHHHH | soluble
5 | MAHHHHHHMLHLHRCAAQGDWLFLKNLHLVLDWASVLEKELCAMPIPSAEFRLIITTEPHDSFPVVLLRMSAKVTIEAPPGMKQNLLQSYTTWDEAFLQGKTKTTSQVLFGLAWFHALLQERRGYIPQGWVKFYEFSSADLKSAADVLCTLSRDKMDWTTVRGLLQECIYGGRLENSHDERVLERLISRIFNDETLVSCDRRLYDDMRVPATNVHRAVVQFIREHLPDADSPSILSLPDNADRAVKEQFALKLTEDLHTVSHLAQVCVSATEAWRTLLAPVLELWKNSALEPEGNAATVSPGETKEDPMSIFFMRELELLVGIVSNLTETFYDLRCVVEGTLIPSPELREEGTELIGGRVPPRWLDLMDGPKDVKLWFALLRRRRDTMMEYAKRPFSPSTPFDLIDFLRPQTFLNALRLYTVRVSNEALVELMLVATPVGRTADRLGVGFTLKGKSIHLQGALLDAQGILSLPSASSPSSTPLSCDVWAAWMSKHNTEGLARIPIYTNAGRTAAIMDLFLSCDSDMAEKLLLGGVAAFLMSV | not soluble
6 | MRAVAEQARVKTLRIQPRAMALPPDELAECARTAVNEALADLRSAMPSDAGPGVDPAAALEYLNQVQVEGLRTLELVTGALEQAMAQIRQTAAAHGTPAPHGLHRIVEEVQQTLAAVSRPPQEAPDDLEGTAEAAQGRVRAVAEPGGRIRSLTVQARAMRSPSQELAEHIVTAVNNALDDLQAKTRRETEIVEIDQRRLDELRESAMRQSAEFMRSVSDMINSIQPR | not soluble
7 | MSLDTNNALARFFDSSGYNANVSNPSAYQGQSANYYTGGSLFVRTPIVDAQLVSVTVPSISAGCSGIDMFMGGFSHVSSDQLVKVGKAIIHNAPPFIVNLALQTWAPQLKQNLDNLQAIADKYLNQSVNSCEAAQAAIGGLAAFAAPATKKHVCATLGTQNNAFSDWVQAQHECGAGGKAAGQLANAKNDPALKDITKTNHNVVWSAIMNNAFLSADKHLAQFMMSLSGTYVYDANGNPRYYPSLLTDNNNLVNVLLEGGKADIYQCRNTDPKACITITKPNNLSISQANGIQSQISKQLESILRHIATDQKLTDKQKSFLELTQTPVLKFFMDDLSANQTPDINSYSRMIAVELLNQYLTNMLSIASQSLANTNNSVEDIALITRDIDNAKRFTTGLADKAIETLNQRNQLIESQRKTAQRSQKDIGITTKPTQAYGNEGHHHHHH | not soluble
8 | MMTRLPLGATLPDFPWDSLADAKKTASSHPDGLINLSVGSPVDEVAPGIRLALAEAAAAPGYPQTIGTQELRAAIVDSLQRRYHATSLGGVLPVVGTKEAIALLPTLLGIRGTVVIPEVAYPTYEVGALMAGATPLRCDAPHELPNDDIDLVFINSPSNPTGRVASVEELRSIVAWAQANDVIVASDECYLGLAWDGEAVSILDPRVNDGNLSNLLAIHSLSKSSNLASYRAGFLAGDEALIAELTEIRKHSGLMVPGPIQAAMVEALRDDDQEALQKLRYARRRALLMRALIDAGFTVEHSEAGLYLWATRGENCRATVDWFASHGILVAPGDFYGPDAHNFVRVALTTTDDNAEKVAARLQKGN | soluble
9 | MNIISEHGFRIDGRRPAQIRNINTRLGLNRNAEGSCYLEHGNTKVLCAVYGPYEGKSSKRIEDKCAIVCQYSATKFSGLERKNRTRGDRKSTEISRLLEKAFESVILTEAFPRSQLDIFCEVIQGDGSNLAACVNATSLALADAGIPMKGIASAATCGVVDGKPIVDLTSREETDLLPRVTLATICGRDEVILVELQNRLHIDHLSTVMDAAKATCADVYECLAVVAQQHLKACAPILGN | not soluble
10 | SLNKNARLQQENHFLSLQRSRYDNLCAAIEETRQVRHDIRHHYLQLAALAEKGDMEKIKEYLSSADRKMPSFDFHFCDNQAVDSILGYYSNHAKQEGIPFLAQIDIPDNFLGDEMDICLVLSNLLENAIEASLKTEDSRRKIVIKMYLHHTHILLIQAENNFDAKILEKNGVFQSTKHSGNGIGIQSIRHITERNGGASNFTYKDGEFTAKIMLRI | not soluble
11 | MSLLPKELLDVRRAKGRIFPKFADERDYELAEKVIEIFKKGLGKKYGNLMKQARKLENAKNFKKVRGFIRVLENHCIEKSCAFDVDSELEPRKVRMLLFEHGFVTSKKERDRVLEYVARYFSTTPETVERAMYADREEELILTKFRPLTPDNLIKLYNLSLLQTTLFNALRLTFWASDRHKEIFRSIKRLGLMYELYEDSGRLMVEVTGAATLLKMTRKYGVSFAKLIPWILRAKNWFIRAEISDFDRLYIMEIDDRIRDLFPDVEERLSYDSTLEEEFARKMQMLGYEVEREPDVVKAGKYAFIPDFAVNLGDKKVYIEIAGFWTDEYLRKKAEKIKSSSIPLILIAREDFGDGGANVKDVILFSRKIPYGEVIKALKRYKPEKKVEGDVVELENFAEVPSEYVIAGKYAVRREIFEEIKREIEVSNPSTLEDIKAILKKYGLGESAIRAFGYRVRWIGLGEAVIERTDEGHHHHHH | not soluble
12 | MKTIHIYTNGRLEEKRGDIVREFPLVLQVNGREIATLIASPHDLRFLVAGFLRNQGFVESAADFHMLAVCDEFGIANVRIRQELPERLKPVLTSGCGTGITFTLETGGREAAVAPSPAVAPEAVFRLMEELARQADNYRNHGGIHSAAVGDGEGNLLLFAEDIGRHNTLDRIAGEALLKGIDLAGRILVTSGRVSTEMASKCARLGIALVASRTSATDMAATLCHEAGICLLGYVRGGKFTVYTHSDRLLVPEQAAASLPGPVPRGRIPGVTGVILAGGQSSRMGSNKALLPYRGGRFIESIHRQLSEYFDEVIVVTNTPEQYEFLPCRKVTDIHEGMGALAGIHAGLHHSSNPAAFVVACDMPYLNGDLIRHLASMADPGGVLIPESPTGLEPLHAVYGKGCLAAIEATLLSGQRRIVSFFGRTNVNRVNVAQIAAFDPEFNSFRNINTPTDYYRLREIERGEALPAPADERAGASALEHHHHHH | not soluble
